System: MS2 coat protein
Assay: apparent KD of MS2 coat protein; designed switch direction (-1 OFF switch, 1 ON switch): -1; higher = weaker reporter binding
Outline: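 Three titration conditions were used: no input, 200 uM small-molecule ligand, and an oligonucleotide input. In each, SNAP-549-labelled MS2 coat protein was raised from 0.7 or 1.5 nM, doubling, to 3 µM over designed RNA switches transcribed on Illumina chips by stalled E. coli RNA polymerase. Curve fits of normalised cluster fluorescence gave values whose per-design median over clusters is the apparent KD.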

[1] = Eterna round: R95, input ligand: microRNA oligo, concentration not stated
[2] = Eterna round: R95, input ligand: FMN 200 uM
[3] = Eterna round: R95, input ligand: none
[4] = input ligand: microRNA oligo, concentration not stated

“AACAAUAAGGAGGAUAUCGUAUCGGAAACGAUACGAGAAGGCUUAACAUGAGGAUCACCCAUGUUCCUCAAUAA [Fiskers Ex 6 - 23] (puzzle: Exclusion 6)” was tested, and the “apparent KD of MS2 coat protein” value [1] was 0.0331 µM.
With “AAGAGUGCAGGAUAUACUUGAUAGGGUAAGGUGAGUGAGGGACAUGAGGAUCACCCAUGUAGAAGGGCAGAGAG [JR_Exclu2_Sub058] (puzzle: Exclusion 2)” the “apparent KD of MS2 coat protein” value [2] was 0.0258 µM, the “apparent KD of MS2 coat protein” value [1] was 0.0334 µM and the “apparent KD of MS2 coat protein” value [3] was 0.0263 µM.
In the case of “AUCAGCUCGUCAGGAUAUGCACAUGAGGAUCACCCAUGUAAGAUCAAGCUGCUUCGGCAGCAAGUGCAGAAGGGACGAGCUGAU [ENG2/9-B2] (Eterna round: R96, puzzle: Exclusion NG 2)”, the “apparent KD of MS2 coat protein” value (input ligand: FMN 200 uM) is reported as 0.151 µM, the “apparent KD of MS2 coat protein” value [4] is reported as 0.177 µM and the “apparent KD of MS2 coat protein” value (input ligand: none) is reported as 0.229 µM.
“GAGGCUAAAGGAUAUACAUGAGGAUCACCCAUGUGGAGGAAGGUUAGAUGAGGAGAAGGUAGAAGGUUAGGCGG [JR_Exclu3_Sub094] (puzzle: Exclusion 3)” was tested, and the “apparent KD of MS2 coat protein” value [1] was 0.0311 µM.
“ACAUGAGGAUCACCCAUGUACACGUAAUGGCUCAUGUAGAGUGAGGAUAUGUGAGACGAACGAGAACAGAAGGCACAAGACAGG [Deportation 9 - Jieux - Exclusion NG 3] (Eterna round: R96, puzzle: Exclusion NG 3)” was tested, and the “apparent KD of MS2 coat protein” value (input ligand: FMN 200 uM) was 0.0291 µM, the “apparent KD of MS2 coat protein” value [4] was 0.0301 µM and the “apparent KD of MS2 coat protein” value (input ligand: none) was 0.0359 µM.
In the case of “GAAAAGUAAGGAUAUGUCCACAGUGAGGAAACUCACUGUGGACAGAAGGUACAUGAGGAUCACCCAUGUUCCUC [ExDelusion 4 - Jieux - Exclusion 4] (Eterna round: R97, puzzle: Exclusion 4)”, the “apparent KD of MS2 coat protein” value (input ligand: FMN 200 uM) is reported as 0.577 µM and the “apparent KD of MS2 coat protein” value (input ligand: none) is reported as 0.0442 µM.
“UACAUGAGGAUCACCCAUGUUUUGUCGUGUAUGGUAUUUAUCUAGGAUAUCAAUUUGUUAAUUUAUGAGAAGGAGAAUAUUAAU [JMF's solution 69] (Eterna round: R96, puzzle: Exclusion NG 3)” was tested, and the “apparent KD of MS2 coat protein” value [4] was 0.0296 µM.
In the case of “GCAGAUGAAGUGAGGAUAUGCUCUACCUCGGUAGAGCAGAAGGCACAUGAGGAUCACCCAUGUGAUUCAUCUGC [Omei Ex4B B6] (Eterna round: R97, puzzle: Brourd's mod of Exclusion 4)”, the “apparent KD of MS2 coat protein” value (input ligand: FMN 200 uM) is reported as 0.0354 µM and the “apparent KD of MS2 coat protein” value (input ligand: none) is reported as 0.017 µM.
In the case of “GAUUACACAAGCUUUAGGGACAUGAGGAUCACCCAUGUUCGUCUUAUUGAUCUAGGUACGCUGACGUACCUAGAUCU [JL-sv1-2.31 Brourd mod] (puzzle: Sensor v3, turn-off variant 1)”, the “apparent KD of MS2 coat protein” value [2] is reported as 0.0145 µM, the “apparent KD of MS2 coat protein” value [1] is reported as 0.0849 µM and the “apparent KD of MS2 coat protein” value [3] is reported as 0.0132 µM.
With “AAUAACAGAGGAUAUACUAUUUUAUGUAUUUAUUAUUUUAAACAUGAGGAUCACCCAUGUAGAAGGCUGAUUAA [JMF 42] (puzzle: Exclusion 2)” the “apparent KD of MS2 coat protein” value [1] was 0.0308 µM.
With “CGGAUGUUAGGAUAUUAGUAGUAGUCAGAAUAGACUAUUACUGAGAAGGAACAUGAGGAUCACCCAUGUAUCCG [Eli x4 4.20] (Eterna round: R97, puzzle: Exclusion 4)” the “apparent KD of MS2 coat protein” value (input ligand: FMN 200 uM) was 0.0474 µM and the “apparent KD of MS2 coat protein” value (input ligand: none) was 0.0177 µM.
For “UUGUUAUAUGUAGGAUAUGCGUGUUAUUAUUAUGCAGAAGGACAUGAGGAUCACCCAUGUGUAUUAUUAUUAUAUAUUAUAUAU [Title] (Eterna round: R96, puzzle: Exclusion NG 1)”, the “apparent KD of MS2 coat protein” value [4] was 0.0154 µM.
For “UUGGUUGUGGUAGGAUAUCCGUUGGAAACCGUUGGAGAAGGACCACAGUCACUGGGUCUUUGUUUGGUGGAGUGGAAGAACCAU [pwkr exNG1 F6.19] (Eterna round: R96, puzzle: Exclusion NG 1)”, the “apparent KD of MS2 coat protein” value (input ligand: FMN 200 uM) was 1.02 µM, the “apparent KD of MS2 coat protein” value [4] was 0.21 µM and the “apparent KD of MS2 coat protein” value (input ligand: none) was 0.349 µM.
For “UAAAGUAUAUAGGAUAUCUAGCUGGAAACAGCUAGAGAAGGAUGUACAUGAGGAUCACCCAUGUAAAACCUCAA [Ex6/17-A1] (Eterna round: R97, puzzle: Exclusion 6)”, the “apparent KD of MS2 coat protein” value (input ligand: FMN 200 uM) was 0.0454 µM and the “apparent KD of MS2 coat protein” value (input ligand: none) was 0.0183 µM.
“UGUAUACGAGGAUAUACAUGAGGAUCACCCAUGUGGACGUUGGAGAACGGCCCUCGUAGUAGAAGGCGUAUGAG [Eternabot (L2) Solution 53] (Eterna round: R97, puzzle: Exclusion 3)” was tested, and the “apparent KD of MS2 coat protein” value (input ligand: FMN 200 uM) was 0.0513 µM and the “apparent KD of MS2 coat protein” value (input ligand: none) was 0.0154 µM.
For “AUAGGAGGAGGAUAUACAUGAGGAUCACCCAUGUGAUCGCCGUAAAAUGCAGUUAGACGUAGAAGGUCUCCCGG [Eternabot (L2) Solution 77] (Eterna round: R97, puzzle: Exclusion 3)”, the “apparent KD of MS2 coat protein” value (input ligand: FMN 200 uM) was 0.0368 µM and the “apparent KD of MS2 coat protein” value (input ligand: none) was 0.0347 µM.
For “UUACCAUGCCGCCUAAUAGCUUUUUGCUCGUCUUAUAUUACAUGAGGAUCACCCAUGUAGAUCAUGUGGCGUGACCU [JL ViennaUCT Maridi mod 2] (puzzle: Sensor v3, turn-off variant 2)”, the “apparent KD of MS2 coat protein” value [2] was 0.126 µM, the “apparent KD of MS2 coat protein” value [1] was 0.0396 µM and the “apparent KD of MS2 coat protein” value [3] was 0.121 µM.
With “GUCACAUGGACAUAGGAUCACAUGAGGAUCACCCAUGUGACUAACAAGCUUUUUGUUCGUCUUAUGUCUAUGUGAAA [Stov1/16-B1] (Eterna round: R97, puzzle: Sensor, turn-off variant 1)” the “apparent KD of MS2 coat protein” value (input ligand: FMN 200 uM) was 0.0135 µM and the “apparent KD of MS2 coat protein” value (input ligand: none) was 0.0116 µM.
“GCGCGAAGGUAGGAUAUCCGGGCAUCUUGCCGCGGAGAAGGACCCACAUGAGGAUCACCCAUGUGGUGAUCCUG [eternacac ex6r4 sub12] (Eterna round: R97, puzzle: Exclusion 6)” was tested, and the “apparent KD of MS2 coat protein” value (input ligand: FMN 200 uM) was 0.0408 µM and the “apparent KD of MS2 coat protein” value (input ligand: none) was 0.0194 µM.
For “UUUUAGGUAGGAUAUACAUUUUUUUUAUUAUCCUCAUUAUUACAUGAGGAUCACCCAUGUAGAAGGACCAUUUU [My Design] (puzzle: Exclusion 2)”, the “apparent KD of MS2 coat protein” value [1] was 0.181 µM.
For “ACGAUGAUCGAAAAGUGUAAACUGACAUGAGGAUCACCCAUGUAGGAUAUGGCUACGAAAAGUAGUCAGAAGGGCAUGUCAUCA [Omei Exc(NG) 3 Av11] (Eterna round: R96, puzzle: Exclusion NG 3)”, the “apparent KD of MS2 coat protein” value (input ligand: FMN 200 uM) was 0.0513 µM, the “apparent KD of MS2 coat protein” value [4] was 0.0346 µM and the “apparent KD of MS2 coat protein” value (input ligand: none) was 0.0479 µM.
In the case of “UAUUAGGGAGGAUAUCGCAGUUGCAACAUGAGGAUCACCCAUGUGAACAGCCUCACCAAUCGAGAAGGCCUGAGUG [Eternabot (L2) Solution 59] (Eterna round: R97, puzzle: Exclusion 5)”, the “apparent KD of MS2 coat protein” value (input ligand: FMN 200 uM) is reported as 0.071 µM and the “apparent KD of MS2 coat protein” value (input ligand: none) is reported as 0.0755 µM.
“CUAGUCCGAGGAUAUAUUAUGUGAUACAUGAGGAUCACCCAUGUUAUAUGAUGGAUGUUAGUAGAAGGCGGACUAG [Mat - Exclusion 5 - JL mod - D81] (puzzle: Exclusion 5)” was tested, and the “apparent KD of MS2 coat protein” value [2] was 0.0863 µM, the “apparent KD of MS2 coat protein” value [1] was 0.0966 µM and the “apparent KD of MS2 coat protein” value [3] was 0.0793 µM.
With “CAAAAGCGAGGAUAUACAUGAGGAUCACCCAUGUGGCAGCCAUGUAGGAGUGACGUCGGUAGAAGGCGCACCCU [Soaran] (puzzle: Exclusion 3)” the “apparent KD of MS2 coat protein” value [1] was 0.0762 µM.
With “CCCGUCGAUGUAGGAUAUGCCCGGGUCUCCCGGGCAGAAGGACAUGAGGAUCACCCAUGUUGAUGAGGAUCACCCAUCAAUGGG [Double but mutated MS2] (Eterna round: R96, puzzle: Exclusion NG 1)” the “apparent KD of MS2 coat protein” value (input ligand: FMN 200 uM) was 0.0169 µM, the “apparent KD of MS2 coat protein” value [4] was 0.0158 µM and the “apparent KD of MS2 coat protein” value (input ligand: none) was 0.0207 µM.
With “CCGGAAAUGUAGGAUAUAGGAGUCGAUAGACACCUAGAAGGGCAUACAUGAGGAUCACCCAUGUGUCCUACCGG [Fiskers Ex 6 - 80] (puzzle: Exclusion 6)” the “apparent KD of MS2 coat protein” value [1] was 0.0118 µM.
With “GGUACUAACACGAUAGUGUUAGUACUAUAAGCUUGUGUUACAUGAGGAUCACCCAUGUCCUCAUAAGCUCGUCUUAU [Mat - Sensor v3 - Turn-off var 2 - D77] (puzzle: Sensor v3, turn-off variant 2)” the “apparent KD of MS2 coat protein” value [2] was 0.0959 µM, the “apparent KD of MS2 coat protein” value [1] was 0.0502 µM and the “apparent KD of MS2 coat protein” value [3] was 0.0986 µM.
In the case of “UAAUUGAUUAAUAGAUUAUACAUGAGGAUCACCCAUGUAGGUCCUACGUGCCAUUUAAGCAGCUCGUCUUAUUCCCA [Sensor-V1 #68] (Eterna round: R97, puzzle: Sensor, turn-off variant 1)”, the “apparent KD of MS2 coat protein” value (input ligand: FMN 200 uM) is reported as 0.0418 µM and the “apparent KD of MS2 coat protein” value (input ligand: none) is reported as 0.049 µM.
“GGGAGCAGACGGAGAUCCAACAUGAGGAUCACCCAUGUCUCCCAAGCUUUUUGCUUGUCUUAUCCUCCUCUGUUUCC [Design #9] (Eterna round: R97, puzzle: Sensor, turn-off variant 1)” was tested, and the “apparent KD of MS2 coat protein” value (input ligand: FMN 200 uM) was 0.0172 µM and the “apparent KD of MS2 coat protein” value (input ligand: none) was 0.0176 µM.
In the case of “GUAGAGUCAGGAUAUACAGAAAGUGGCUGGAAAACAGUGGCACAUGAGGAUCACCCAUGUAGAAGGGACUCUAC [ChP 11-04-2015 #1] (puzzle: Exclusion 2)”, the “apparent KD of MS2 coat protein” value [1] is reported as 0.0843 µM.
In the case of “AGAGUACAUGUGAGGAUAUCUGGAGUGUCCCACGAAGAGAAGGCACAUGAGGAUCACCCAUGUCGUCCCGGUUU [Eternabot (L1) Solution 28] (Eterna round: R97, puzzle: Brourd's mod of Exclusion 4)”, the “apparent KD of MS2 coat protein” value (input ligand: FMN 200 uM) is reported as 0.0225 µM and the “apparent KD of MS2 coat protein” value (input ligand: none) is reported as 0.0171 µM.
“AGGGCACGAGGAUAUGUGAAACUGGACUUGAGGAUCACCCAAGUCGUCUUCGUGUCCAAAGCAGAAGGCGUGGCCA [Zaesce] (Eterna round: R97, puzzle: Exclusion 5)” was tested, and the “apparent KD of MS2 coat protein” value (input ligand: FMN 200 uM) was 0.0138 µM and the “apparent KD of MS2 coat protein” value (input ligand: none) was 0.0104 µM.

— the supplement of paper PMC9170038
